This series deals with T1, BMC13 (uncultured bacterium (metagenome)).
T1 chain: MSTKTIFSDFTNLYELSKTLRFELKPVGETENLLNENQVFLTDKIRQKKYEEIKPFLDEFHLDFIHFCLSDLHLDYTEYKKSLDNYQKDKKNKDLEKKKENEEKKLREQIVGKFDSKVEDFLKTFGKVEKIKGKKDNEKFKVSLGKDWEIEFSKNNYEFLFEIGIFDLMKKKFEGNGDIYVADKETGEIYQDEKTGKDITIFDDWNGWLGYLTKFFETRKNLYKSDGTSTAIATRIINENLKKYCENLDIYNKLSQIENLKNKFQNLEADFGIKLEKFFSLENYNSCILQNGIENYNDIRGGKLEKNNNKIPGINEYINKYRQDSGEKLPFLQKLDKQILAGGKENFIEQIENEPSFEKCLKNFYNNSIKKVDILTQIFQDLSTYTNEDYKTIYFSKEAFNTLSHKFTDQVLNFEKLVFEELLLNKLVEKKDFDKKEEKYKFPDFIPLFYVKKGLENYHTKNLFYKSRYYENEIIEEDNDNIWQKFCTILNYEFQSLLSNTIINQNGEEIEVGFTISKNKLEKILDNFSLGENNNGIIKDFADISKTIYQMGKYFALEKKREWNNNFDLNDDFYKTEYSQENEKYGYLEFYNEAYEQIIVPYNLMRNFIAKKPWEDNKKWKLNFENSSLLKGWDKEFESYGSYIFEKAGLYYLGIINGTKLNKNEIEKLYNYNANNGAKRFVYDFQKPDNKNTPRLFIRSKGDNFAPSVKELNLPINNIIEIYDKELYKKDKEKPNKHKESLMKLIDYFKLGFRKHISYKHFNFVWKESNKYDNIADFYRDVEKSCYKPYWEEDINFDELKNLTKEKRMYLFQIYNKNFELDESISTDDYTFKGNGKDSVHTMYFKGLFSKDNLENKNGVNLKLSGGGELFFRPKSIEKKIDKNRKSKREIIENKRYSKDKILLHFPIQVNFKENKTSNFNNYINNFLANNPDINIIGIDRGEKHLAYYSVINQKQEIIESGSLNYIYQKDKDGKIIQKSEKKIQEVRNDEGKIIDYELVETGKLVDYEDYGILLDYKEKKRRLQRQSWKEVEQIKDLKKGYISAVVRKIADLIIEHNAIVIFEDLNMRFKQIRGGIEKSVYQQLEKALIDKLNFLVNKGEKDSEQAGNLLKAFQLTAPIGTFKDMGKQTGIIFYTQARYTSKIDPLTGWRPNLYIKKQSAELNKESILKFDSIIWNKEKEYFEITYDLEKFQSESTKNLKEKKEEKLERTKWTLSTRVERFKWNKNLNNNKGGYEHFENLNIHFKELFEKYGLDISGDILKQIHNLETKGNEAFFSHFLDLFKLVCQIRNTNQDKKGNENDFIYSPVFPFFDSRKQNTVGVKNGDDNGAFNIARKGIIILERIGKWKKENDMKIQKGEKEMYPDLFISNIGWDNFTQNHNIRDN
In words: cell_activity; PAM not stated; E. coli depletion, 30 C. The method, boiled down: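 E. coli carrying arabinose-induced (0.2%) BMC nuclease, grown at 30° C., made electrocompetent and electroporated with 50-100 ng plasmid carrying gRNA against malQ. Transformants plated on selective M9-glucose agar with kanamycin/ampicillin (± nourseothricin), and growth scored after 48 h at 30° C.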

Some results are limits rather than exact numbers.

B1: malQ gRNA (BMC stem-loop + 24 nt spacer) ; malQ protospacer (ssRNA ; dsDNA)
RNA: GAUUUCUACUAUUGUAGAUGUGGCGGUACGUUGAUGCAUCGCG
DNA 1: GTGGCGGTACGTTGATGCATCGCG
DNA 2: CGCGATGCATCAACGTACCGCCAC
Take B1: the activity is above 99.9 % colony reduction.

(Values after patent US20250277199, “NOVEL CRISPR-CAS NUCLEASES FROM METAGENOMES” (Brain Biotech AG, published 2025).)
